Results published in publication doi:10.1101/2021.05.05.442822.
Each block holds one substance with its values, some of them ahead of it.

How the values were obtained:
H3K9me0 peptide = assay: FP; settings: complex
[1] = biological target: G9a ANK-SET, N-terminally 6xHis-tagged (His:G9a) or N-terminally Maltose Binding Protein tagged (MBP:G9a) (human); assay: pull-down
[2] = biological target: fluoresceinated H3 1-20 K9me2 peptide (UniProt P68431); assay: fluorescence polarisation
[3] = biological target: unmethylated (H3K9me0) mononucleosome; assay: fluorescence polarisation
[4] = biological target: G9a ANK-SET, tag cleaved (human); assay: SEC-MALS

Sequence of G9a ANK-SET homodimer (Q96KQ7 whole entry, looked up): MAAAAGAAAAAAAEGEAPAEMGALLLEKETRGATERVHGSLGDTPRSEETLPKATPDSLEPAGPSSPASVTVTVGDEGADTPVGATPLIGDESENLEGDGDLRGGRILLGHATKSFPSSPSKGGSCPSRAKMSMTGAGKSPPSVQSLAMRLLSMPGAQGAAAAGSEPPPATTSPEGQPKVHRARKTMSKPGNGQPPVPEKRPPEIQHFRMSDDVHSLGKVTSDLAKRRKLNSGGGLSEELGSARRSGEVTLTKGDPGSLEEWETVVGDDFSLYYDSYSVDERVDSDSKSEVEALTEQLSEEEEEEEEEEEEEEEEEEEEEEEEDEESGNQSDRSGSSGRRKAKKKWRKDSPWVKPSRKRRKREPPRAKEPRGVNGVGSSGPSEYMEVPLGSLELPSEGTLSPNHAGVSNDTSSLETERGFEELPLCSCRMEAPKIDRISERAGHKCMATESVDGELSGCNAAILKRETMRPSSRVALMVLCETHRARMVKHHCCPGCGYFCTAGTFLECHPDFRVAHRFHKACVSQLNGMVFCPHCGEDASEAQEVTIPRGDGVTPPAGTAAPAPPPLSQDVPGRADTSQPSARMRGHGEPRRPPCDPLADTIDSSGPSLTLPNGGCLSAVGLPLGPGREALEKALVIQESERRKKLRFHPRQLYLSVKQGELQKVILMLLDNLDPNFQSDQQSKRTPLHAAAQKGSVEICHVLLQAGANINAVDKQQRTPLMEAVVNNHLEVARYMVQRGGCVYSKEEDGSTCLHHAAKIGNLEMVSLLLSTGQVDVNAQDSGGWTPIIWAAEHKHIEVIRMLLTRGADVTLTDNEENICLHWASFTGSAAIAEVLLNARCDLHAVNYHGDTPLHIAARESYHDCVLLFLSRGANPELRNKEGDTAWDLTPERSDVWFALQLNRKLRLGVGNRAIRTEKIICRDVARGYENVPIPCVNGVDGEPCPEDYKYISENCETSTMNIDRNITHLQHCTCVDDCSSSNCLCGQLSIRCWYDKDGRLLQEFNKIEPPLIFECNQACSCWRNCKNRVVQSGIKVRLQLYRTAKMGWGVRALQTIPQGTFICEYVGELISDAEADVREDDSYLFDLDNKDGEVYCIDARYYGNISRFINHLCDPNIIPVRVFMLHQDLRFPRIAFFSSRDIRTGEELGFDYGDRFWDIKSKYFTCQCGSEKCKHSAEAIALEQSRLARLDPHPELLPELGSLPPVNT

Kd (H3K9me0 peptide): 100 µM
Substance: G9a ANK-SET homodimer (from UniProt Q96KQ7)

stoichiometry N [1]: 2
Substance: G9a ANK-SET, N-terminally 6xHis-tagged (His:G9a) or N-terminally Maltose Binding Protein tagged (MBP:G9a) (domain or fragment)

stoichiometry N [4]: 1
Substance: GLP ANK-SET, tag cleaved (domain or fragment)

More lines, now with the values behind:

Substance: GLP ANK-SET homodimer (complex)
fold reduced binding [2]: 12.5 times
Kd [3]: 26.3 µM

Substance: GLP ANK-SET, N-terminally Maltose Binding Protein tagged (MBP:GLP) (domain or fragment)
stoichiometry N [1]: 1
